Consider one molecule from article PMC12603107 (2025).

This assay has as its target T1, CI-M6P/IGF2R domains 11-13 (Homo sapiens, UniProt P11717).
T1 chain: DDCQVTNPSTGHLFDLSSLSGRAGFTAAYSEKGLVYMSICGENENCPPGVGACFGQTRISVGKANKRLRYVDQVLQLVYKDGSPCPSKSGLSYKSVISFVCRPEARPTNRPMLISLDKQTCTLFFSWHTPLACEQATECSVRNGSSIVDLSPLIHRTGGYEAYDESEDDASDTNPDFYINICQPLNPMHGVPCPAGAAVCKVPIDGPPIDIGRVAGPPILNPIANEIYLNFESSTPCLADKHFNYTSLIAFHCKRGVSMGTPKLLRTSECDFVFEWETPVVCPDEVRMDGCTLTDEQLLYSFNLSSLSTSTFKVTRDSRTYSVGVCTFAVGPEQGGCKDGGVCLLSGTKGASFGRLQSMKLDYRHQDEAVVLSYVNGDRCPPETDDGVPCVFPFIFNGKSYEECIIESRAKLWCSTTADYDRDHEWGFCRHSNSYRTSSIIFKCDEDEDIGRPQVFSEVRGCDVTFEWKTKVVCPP
Description: competitive ELISA (biotinylated IGF2). For orientation: In an ELISA, binding on a coated surface is turned into a signal by an enzyme label.

B1: IGF2 peptide (des1-6) 7-67 (protein)
chain: KSMLVLLTFLAFASCCIAAYRPSETLCGGELVDTLQFVCGDRGFYFSRPASRVSRRSRGIV
For orientation: IC50 means the concentration at which inhibition is half-maximal. A lower IC50 goes with inhibition by little substance. Take B1: the IC50 was about 5 nM.
